B1: r-rGH: rat-specific recombinant growth hormone, subcutaneously injected (protein, UniProt P01244 27-216, looked up)
Somatotropin: FPAMPLSSLFANAVLRAQHLHQLAADTYKEFERAYIPEGQRYSIQNAQAAFCFSETIPAPTGKEEAQQRTDMELLRFSLLLIQSWLGPVQFLSRIFTNSLMFGTSDRVYEKLKDLEEGIQALMQELEDGSPRIGQILKQTYDKFDANMRSDDALLKNYGLLSCFKKDLHKAETYLRVMKCRRFAESSCAF

Tested on: fracture of the right tibia
Type: in vivo, Sprague Dawley rats
Procedure: In an experiment with animals, tests were conducted on 60 such animals (5-months-old female Sprague Dawley rats). All test animals were subjected to a standardized fracture of the right tibia. Differently coated titanium wires (1.0 mm in diameter) were then implanted in the repositioned tibiae as intramedullary supports.
Depending on the group assignments as specified below 2 mg/kg of a rat-specific recombinant growth hormone (r-rGH) or a placebo was subcutaneously injected daily for a period of time up to 42 days. At various time points (0 d, 4 d, 7 d, 14 d, 21 d, 28 d, 35 d, and 42 d) and after administration of an anaesthetic inhalant, x-rays were taken in two planes, 1.25 ml of blood was taken from each by the retrobulbar method (deep-frozen at −80° C. (−112° F.)), and their weight and body temperature were measured. On day 42, the fractured and the unfractured tibiae, along with the periosteum, were separately prepared and subjected to biomechanical tests (torsional load-torsional stiffness).
Group Assignments • Group I: Fracture of the right tibia—uncoated implant— • Systemic application of a placebo (control group) • Group II: Fracture of the right tibia—implant coated with poly-D,L-lactide 203— • Systemic application of a placebo • Group III: Fracture of the right tibia—implant coated with poly-D,L-lactide— • Systemic application of (r-rGH) • Group IV: Fracture of the right tibia—implant coated with poly-D,L-lactide and growth factors IGF-I (5%) and TGF-β (1%)— • Systemic application of a placebo • Group V: Fracture of the right tibia—implant coated with poly-D,L-lactide and growth factors IGF-I (5%) and TGF-β (1%)— • Systemic application of (r-rGH)
The coated implants were produced as indicated in Example 1.

Molecule	differences in weight and temperature among placebo groups I, II and IV (rat, in vivo)	body weight increase (2 mg/kg s.c. daily, compared to placebo, p<0.05)	maximum torsional load (day 42, systemic 2 mg/kg s.c. daily with implant coated with poly-D,L-lactide (Group III), p<0.05)
poly(D,L) lactide [PDLLA]	No major differences	–	–
B1	–	13%	significant increase
